T1: EsCas13d, nuclease-dead (Eubacterium siraeum, UniProt B0MS50, R295A;H300A;R849A;H854A)
T1 sequence: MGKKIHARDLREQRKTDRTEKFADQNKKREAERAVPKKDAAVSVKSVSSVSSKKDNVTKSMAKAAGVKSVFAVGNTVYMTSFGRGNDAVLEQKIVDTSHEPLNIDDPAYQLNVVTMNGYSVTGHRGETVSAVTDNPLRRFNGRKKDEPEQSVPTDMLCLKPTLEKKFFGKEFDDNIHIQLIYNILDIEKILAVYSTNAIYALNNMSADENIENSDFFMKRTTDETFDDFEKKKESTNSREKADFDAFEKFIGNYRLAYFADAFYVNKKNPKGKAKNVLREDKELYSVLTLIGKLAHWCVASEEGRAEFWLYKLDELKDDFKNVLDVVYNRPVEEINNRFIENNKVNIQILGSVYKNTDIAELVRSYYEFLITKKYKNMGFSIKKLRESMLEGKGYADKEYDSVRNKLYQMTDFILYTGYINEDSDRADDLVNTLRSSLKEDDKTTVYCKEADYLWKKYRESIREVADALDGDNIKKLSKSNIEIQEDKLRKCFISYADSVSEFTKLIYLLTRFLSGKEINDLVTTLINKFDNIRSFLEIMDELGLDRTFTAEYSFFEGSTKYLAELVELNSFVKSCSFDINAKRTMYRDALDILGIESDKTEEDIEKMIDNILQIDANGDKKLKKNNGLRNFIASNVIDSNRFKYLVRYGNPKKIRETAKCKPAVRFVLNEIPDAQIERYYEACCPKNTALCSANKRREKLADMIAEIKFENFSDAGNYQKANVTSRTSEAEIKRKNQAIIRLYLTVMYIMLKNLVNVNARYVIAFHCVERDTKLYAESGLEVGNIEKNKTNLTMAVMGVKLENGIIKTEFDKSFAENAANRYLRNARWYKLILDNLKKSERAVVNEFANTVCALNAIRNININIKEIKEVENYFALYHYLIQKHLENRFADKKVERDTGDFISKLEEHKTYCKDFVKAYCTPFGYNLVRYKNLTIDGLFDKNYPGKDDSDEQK

B1: target 1 C6U,A14U (mixed)
RNA 1: CACCCGUGCAAAAAUGCAGGGGUCUAAAACUGAGCGGAUAACCUCUCUAUGG
RNA 2: GGGAAUGGAUCCACAUCUACGAAUUCGUACCAUAGAGUGGUUAUCUGCUCACCGAGAUCGGAAGAGCACACGU
B2: target 1 U8C,G12A (mixed)
RNA 1: B1 RNA 1
RNA 2: B1 RNA 2 with U38A, G40A, U44C, U46C
B3: target 1 C7G,U11G (mixed)
RNA 1: B1 RNA 1
RNA 2: B1 RNA 2 with U38A, U41G, C45G, U46C
B4: target 1 insC 3' of 8,insC 3' of 3 (mixed)
RNA 1: B1 RNA 1
RNA 2: GGGAAUGGAUCCACAUCUACGAAUUCGUACCAUAGAGAGGUUAUCCCGCUCCACCGAGAUCGGAAGAGCACACGU
B5: target 2 MT 5'PFS GUC 3'PFS CGU (mixed)
RNA 1: CACCCGUGCAAAAUUGCAGGGGUCUAAAACCUUCUCCAAAUUGUUUCAUCCU
RNA 2: GGGAAUGGAUCCACAUCUACGAAUUCGUCAGGAUGAAACAAUUUGGAGAAGCGUAGAUCGGAAGAGCACACGU
B6: target 2 MT 5'PFS CUA 3'PFS UUA (mixed)
RNA 1: B5 RNA 1
RNA 2: B5 RNA 2 with G27C, C29A, C52U, G53U, U54A
B7: target 2 MT 5'PFS GGU 3'PFS UGU (mixed)
RNA 1: B5 RNA 1
RNA 2: B5 RNA 2 with U28G, C29U, C52U
B8: target 2 MT 5'PFS GGC 3'PFS AUG (mixed)
RNA 1: B5 RNA 1
RNA 2: B5 RNA 2 with U28G, C52A, G53U, U54G
B9: target 2 MT 5'PFS AUA 3'PFS ACU (mixed)
RNA 1: B5 RNA 1
RNA 2: B5 RNA 2 with G27A, C29A, C52A, G53C
B10: target 2 MT 5'PFS UUU 3'PFS UUA (mixed)
RNA 1: B5 RNA 1
RNA 2: B5 RNA 2 with G27U, C29U, C52U, G53U, U54A
B11: target 2 MT 5'PFS UGC 3'PFS ACA (mixed)
RNA 1: B5 RNA 1
RNA 2: B5 RNA 2 with G27U, U28G, C52A, G53C, U54A
B12: target 2 MT 5'PFS UAU 3'PFS UAG (mixed)
RNA 1: B5 RNA 1
RNA 2: B5 RNA 2 with G27U, U28A, C29U, C52U, G53A, U54G
B13: target 2 MT 5'PFS GUC 3'PFS CGG (mixed)
RNA 1: B5 RNA 1
RNA 2: B5 RNA 2 with U54G
B14: target 2 MT 5'PFS GAG 3'PFS UGA (mixed)
RNA 1: B5 RNA 1
RNA 2: B5 RNA 2 with U28A, C29G, C52U, U54A
B15: target 2 MT 5'PFS AUA 3'PFS ACG (mixed)
RNA 1: B5 RNA 1
RNA 2: B5 RNA 2 with G27A, C29A, C52A, G53C, U54G
B16: target 2 MT 5'PFS GUC 3'PFS CGA (mixed)
RNA 1: B5 RNA 1
RNA 2: B5 RNA 2 with U54A
B17: target 2 MT 5'PFS GGC 3'PFS AUU (mixed)
RNA 1: B5 RNA 1
RNA 2: B5 RNA 2 with U28G, C52A, G53U
B18: target 2 MT 5'PFS UGU 3'PFS ACG (mixed)
RNA 1: B5 RNA 1
RNA 2: B5 RNA 2 with G27U, U28G, C29U, C52A, G53C, U54G
B19: target 2 MT 5'PFS GUC 3'PFS CGC (mixed)
RNA 1: B5 RNA 1
RNA 2: B5 RNA 2 with U54C
B20: target 2 MT 5'PFS GAA 3'PFS ACA (mixed)
RNA 1: B5 RNA 1
RNA 2: B5 RNA 2 with U28A, C29A, C52A, G53C, U54A
B21: target 2 MT 5'PFS UGU 3'PFS ACU (mixed)
RNA 1: B5 RNA 1
RNA 2: B5 RNA 2 with G27U, U28G, C29U, C52A, G53C
B22: target 2 MT 5'PFS UGU 3'PFS ACA (mixed)
RNA 1: B5 RNA 1
RNA 2: B5 RNA 2 with G27U, U28G, C29U, C52A, G53C, U54A
B23: target 2 MT 5'PFS CUG 3'PFS UCU (mixed)
RNA 1: B5 RNA 1
RNA 2: B5 RNA 2 with G27C, C29G, C52U, G53C
B24: target 2 MT 5'PFS AUA 3'PFS ACC (mixed)
RNA 1: B5 RNA 1
RNA 2: B5 RNA 2 with G27A, C29A, C52A, G53C, U54C
B25: target 2 MT 5'PFS UGC 3'PFS ACU (mixed)
RNA 1: B5 RNA 1
RNA 2: B5 RNA 2 with G27U, U28G, C52A, G53C
B26: target 2 MT 5'PFS GAG 3'PFS UGC (mixed)
RNA 1: B5 RNA 1
RNA 2: B5 RNA 2 with U28A, C29G, C52U, U54C
B27: target 2 MT 5'PFS CUA 3'PFS UUU (mixed)
RNA 1: B5 RNA 1
RNA 2: B5 RNA 2 with G27C, C29A, C52U, G53U
B28: target 2 MT 5'PFS GAG 3'PFS UGU (mixed)
RNA 1: B5 RNA 1
RNA 2: B5 RNA 2 with U28A, C29G, C52U
B29: target 2 MT 5'PFS UUU 3'PFS UUU (mixed)
RNA 1: B5 RNA 1
RNA 2: B5 RNA 2 with G27U, C29U, C52U, G53U
B30: target 2 MT 5'PFS CUA 3'PFS UUC (mixed)
RNA 1: B5 RNA 1
RNA 2: B5 RNA 2 with G27C, C29A, C52U, G53U, U54C
B31: target 2 MT 5'PFS GAA 3'PFS ACG (mixed)
RNA 1: B5 RNA 1
RNA 2: B5 RNA 2 with U28A, C29A, C52A, G53C, U54G
B32: target 2 MT 5'PFS GGC 3'PFS AUC (mixed)
RNA 1: B5 RNA 1
RNA 2: B5 RNA 2 with U28G, C52A, G53U, U54C
B33: target 2 MT 5'PFS GGC 3'PFS AUA (mixed)
RNA 1: B5 RNA 1
RNA 2: B5 RNA 2 with U28G, C52A, G53U, U54A
B34: target 2 MT 5'PFS AUA 3'PFS ACA (mixed)
RNA 1: B5 RNA 1
RNA 2: B5 RNA 2 with G27A, C29A, C52A, G53C, U54A
B35: target 2 MT 5'PFS GCC 3'PFS AUU (mixed)
RNA 1: B5 RNA 1
RNA 2: B5 RNA 2 with U28C, C52A, G53U

Changes are numbered by the printed parent chain. Names may count otherwise.

This data set addresses T1, EsCas13d, nuclease-dead. The data set is described as follows: crRNA (strand 1, pre-loaded); Mg2+; 40 mM Tris-HCl pH 7.5, 150 mM NaCl, 6 mM MgCl2, 1 mM DTT, 0.1% Tween-20, 0.2 mg/ml BSA; 25 C; 10 min per concentration, then washed. Conditions: tags: His6-TwinStrep-SUMO cleaved; N-terminal SNAP kept (SNAP-Surface 488); label: 3' end held by stalled T7 RNA polymerase.
Regarding B1, the Kd (usually the free concentration of one partner at which half of the binding sites on the other are occupied at equilibrium, for simple one-to-one binding) came to 58 ± 20 nM.
With B2, binding was characterised by a dissociation constant (Kd) of 12.5 ± 1 nM.
With B3, the Kd is 24.7 ± 1.5 nM.
For the molecule B4, the Kd came to 13.3 ± 0.7 nM.
The molecule B5 registered a Kd of 17.5 ± 2.8 nM.
For B6, the Kd amounted to 1.88 ± 0.26 nM.
Turning to B7, binding was put at a Kd of 33 ± 4 nM.
The value for B8 was 15.2 ± 1.7 nM; that for B9 was 10.7 ± 1.4 nM; that for B10 was 9.9 ± 1.3 nM.
On to B11, for which binding was characterised by a dissociation constant (Kd) of 17 ± 4 nM.
The value for B12 was 34 ± 7 nM; that for B13 was 18.3 ± 2.1 nM.
B14: binding was characterised by a dissociation constant (Kd) of 9.5 ± 1.8 nM.
In turn, B15 came in with an equilibrium dissociation constant (Kd) of 14 ± 5 nM.
Take B16: the affinity, expressed as Kd, was 8.7 ± 0.7 nM.
For the molecule B17, the Kd worked out at 12.4 ± 1.3 nM.
Molecule B18 yielded a Kd of 15 ± 1.9 nM.
B19 yielded a Kd of 16.9 ± 1.3 nM.
The value for B20 was 12 ± 4 nM; that for B21 was 28 ± 12 nM.
The molecule B22 gave a Kd of 14.9 ± 3.5 nM.
On to B23, for which the Kd was 6.3 ± 0.4 nM.
In turn, B24 displayed a Kd of 10.7 ± 1.8 nM.
The value for B25 was about 49 nM; that for B26 was 7.1 ± 0.7 nM; that for B27 was 2.61 ± 0.28 nM.
In turn, B28 returned a Kd of 13.5 ± 1.7 nM.
In turn, B29 had a Kd of 20 ± 4 nM.
For B30, the Kd stood at 3.1 ± 0.9 nM.
As for B31, the Kd stood at 11 ± 1.3 nM.
As to B32, the Kd worked out at 13.2 ± 1.1 nM.
As for B33, the figure is 10.8 ± 1 nM; as for B34, 6.9 ± 1.6 nM.
Molecule B35 showed a Kd of 10.7 ± 1.3 nM.
